Non-standard residues stand in square brackets, D forms with d. Phe(4-N3) = [N-]=[N+]=Nc1ccc(C[C@H](N)C(=O)O)cc1
Tests used:
[1] = target: the molecule itself; assay: in-cell photocrosslinking of the GST homodimer (365 nm, 10 min), band intensity ratio on anti-His Western blot
Procedure: E. coli GST is homodimer (Nishida et al., J. Mol. Biol., 1998, 281:135-147). Three sites at the dimer interface, Asn87 in a loop and Tyr92 and Val125 in α-helices were chosen for incorporating Azi (FIG. 10A). GST genes with TAG mutation at these sites and a C-terminal His6 tag were cotransfected with the orthogonal tRNACUA^Tyr/EAziRS pair in HEK293 cells, and the cells were grown in the presence of 1 mM of Azi. Photocrosslinking was performed by exposing the cells under 365 nm UV light for 10 minutes. Cell lysates were separated on SDS-PAGE and probed with an antibody against the His6 tag.
After photocrosslinking, higher molecular weight bands around 46 kD emerged, accompanied by the intensity decrease of the monomer band (several faint bands between 23 kD and 46 kD were proteins in the cell lysate recognized by the penta-His antibody nonspecifically, which were also seen in samples without exposure to UV light). […] Crosslinked GST migrated at different positions in the gel depending on where Azi was incorporated.

[2] = target: the molecule itself; assay: in-cell photocrosslinking of the GST homodimer, anti-FLAG Western blot

B1: E. coli glutathione S-transferase (GST) with p-azidophenylalanine (Azi) incorporated at Tyr92 (92TAG), C-terminal His6 tag (enzyme)
chain: MKLFYKPGACSLASHITLRESGKDFTLVSVDLMKKRLENGDDYFAVNPKGQVPALLLDDGTLLTEGVAIMQYLADSVPDRQLLAPVNSISR[Phe(4-N3)]KTIEWLNYIATELHKGFTPLFRPDTPEEYKPTVRAQLEKKLQYVNEALKDEHWICGQRFTIADAYLFTVLRWAYAVKLNLEGLEHIAAFMQRMAERPEVQDALSAEGLKHHHHHH
notes: Expressed in HEK293/HEK293T cells with tRNACUA-Tyr/EAziRS and 1 mM Azi; crosslinked in live cells with 365 nm UV; X stands for the unnatural amino acid Azi; also called site 92; GST-His6
Question: B1 was tested. Which crosslinking efficiency [1] did it give?
Answer: Its crosslinking efficiency is 40%.

B2: E. coli glutathione S-transferase (GST) with p-azidophenylalanine (Azi) incorporated at Val125 (125TAG), C-terminal His6 tag (enzyme)
chain: MKLFYKPGACSLASHITLRESGKDFTLVSVDLMKKRLENGDDYFAVNPKGQVPALLLDDGTLLTEGVAIMQYLADSVPDRQLLAPVNSISRYKTIEWLNYIATELHKGFTPLFRPDTPEEYKPT[Phe(4-N3)]RAQLEKKLQYVNEALKDEHWICGQRFTIADAYLFTVLRWAYAVKLNLEGLEHIAAFMQRMAERPEVQDALSAEGLKHHHHHH
notes: Expressed in HEK293/HEK293T cells with tRNACUA-Tyr/EAziRS and 1 mM Azi; crosslinked in live cells with 365 nm UV; X stands for the unnatural amino acid Azi
Question: With B2 as the protein, how does the crosslinking efficiency [1] read?
Answer: Its crosslinking efficiency is 98%.

B3: E. coli glutathione S-transferase (GST) with p-azidophenylalanine (Azi) incorporated at Asn87 (87TAG), C-terminal His6 tag (enzyme)
chain: MKLFYKPGACSLASHITLRESGKDFTLVSVDLMKKRLENGDDYFAVNPKGQVPALLLDDGTLLTEGVAIMQYLADSVPDRQLLAPV[Phe(4-N3)]SISRYKTIEWLNYIATELHKGFTPLFRPDTPEEYKPTVRAQLEKKLQYVNEALKDEHWICGQRFTIADAYLFTVLRWAYAVKLNLEGLEHIAAFMQRMAERPEVQDALSAEGLKHHHHHH
notes: Expressed in HEK293/HEK293T cells with tRNACUA-Tyr/EAziRS and 1 mM Azi; crosslinked in live cells with 365 nm UV; X stands for the unnatural amino acid Azi; also called GST 87TAG; site 87
Question: How did the crosslinking efficiency [1] turn out when B3 was run?
Answer: The crosslinking efficiency was 33%.

B4: E. coli glutathione S-transferase (GST) with p-azidophenylalanine (Azi) incorporated at Val125 (125TAG), C-terminal FLAG tag (enzyme, UniProt P0A9D2 1-201, looked up)
chain: MKLFYKPGACSLASHITLRESGKDFTLVSVDLMKKRLENGDDYFAVNPKGQVPALLLDDGTLLTEGVAIMQYLADSVPDRQLLAPVNSISRYKTIEWLNYIATELHKGFTPLFRPDTPEEYKPT[Phe(4-N3)]RAQLEKKLQYVNEALKDEHWICGQRFTIADAYLFTVLRWAYAVKLNLEGLEHIAAFMQRMAERPEVQDALSAEGLK
modifications: not fully specified (C-terminus); also: homodimer
notes: not shown: C-terminal FLAG tag replacing the His6 tag
Question: Does B4 bind [2]?
Answer: Result: binds

B5: E. coli glutathione S-transferase (GST) with p-azidophenylalanine (Azi) incorporated at Asn87 (87TAG), C-terminal FLAG tag (enzyme, UniProt P0A9D2 1-201, looked up)
chain: MKLFYKPGACSLASHITLRESGKDFTLVSVDLMKKRLENGDDYFAVNPKGQVPALLLDDGTLLTEGVAIMQYLADSVPDRQLLAPV[Phe(4-N3)]SISRYKTIEWLNYIATELHKGFTPLFRPDTPEEYKPTVRAQLEKKLQYVNEALKDEHWICGQRFTIADAYLFTVLRWAYAVKLNLEGLEHIAAFMQRMAERPEVQDALSAEGLK
modifications: not fully specified (C-terminus); also: homodimer
notes: as for B4
Question: Does B5 bind [2]?
Answer: Result: binds

Source: patent US20120077224A1 (SALK INSTITUTE FOR BIOLOGICAL STUDIES, published 2012)
